Here are results for 1 molecule from patent US7235238 (IMMUNEX, dated 2007).

In assay [1] the target is chimeric receptor: extracellular and transmembrane portions of the mouse type I IL-1 receptor fused to the cytoplasmic portion of human 2F1 (mouse; human) (UniProt P13504). The assay can be described thus: cell-based or functional assay. Particulars: scale: fold of the level mediated by the intact mouse type I IL-1R.
The target of assay [2] is T1, soluble type I IL-1RI/Fc fusion protein (extracellular domain of human type I IL-1R fused to the Fc region … (human, UniProt P14778 18-336)).
T1 construct: extracellular domain; Positive control in the BIAcore assay; also called human type I IL-1R/Fc fusion protein; not shown: Fc region polypeptide (human IgG1, as for 2F1/Fc)
T1 sequence (looked up): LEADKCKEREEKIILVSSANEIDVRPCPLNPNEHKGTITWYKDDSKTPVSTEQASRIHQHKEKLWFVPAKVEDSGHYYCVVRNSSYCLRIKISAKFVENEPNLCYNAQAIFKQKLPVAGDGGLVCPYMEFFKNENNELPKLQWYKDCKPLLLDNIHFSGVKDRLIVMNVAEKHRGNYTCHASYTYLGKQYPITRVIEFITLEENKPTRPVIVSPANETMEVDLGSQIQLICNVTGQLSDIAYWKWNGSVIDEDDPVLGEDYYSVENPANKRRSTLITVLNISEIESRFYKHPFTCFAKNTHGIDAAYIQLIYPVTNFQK
The assay can be described thus: BIAcore; Fc fusion captured by anti-human IgG Fc serum. The text has this: (§1) A BIAcore biosensor (Pharmacia Biosensor AB, Piscataway, N.J.) was used to examine binding of IL-1 ligands to the human 2F1/Fc fusion protein, using procedures essentially as described in Arend et al. (*J. Immunol.* 153: 4766–4774, 1994). Briefly, a goat anti-human IgG serum directed against the Fc region (Jackson Immunoresearch Laboratories, Inc., West Grove, Pa.), covalently coupled to the dextran matrix of a hydrogel chip, was used to capture the human 2F1/Fc protein. The 2F1/Fc fusion protein thus was immobilized on the BIAcore chip. The three IL-1 ligands, at several different concentrations, were reacted with the captured protein, and the change of mass per unit area over time was measured.

The target of assay [3] is T2, 2F1/Fc soluble fusion protein (human 2F1 extracellular domain joined to the Fc region of a human IgG1) (human, UniProt Q13478 20-329).
T2 construct: Captured on the BIAcore chip by goat anti-human IgG Fc serum; also called human 2F1/Fc fusion protein; 2F1/Fc protein; not shown: Fc region of a human IgG1; made by procedures analogous to Baum et al. 1994
T2 sequence: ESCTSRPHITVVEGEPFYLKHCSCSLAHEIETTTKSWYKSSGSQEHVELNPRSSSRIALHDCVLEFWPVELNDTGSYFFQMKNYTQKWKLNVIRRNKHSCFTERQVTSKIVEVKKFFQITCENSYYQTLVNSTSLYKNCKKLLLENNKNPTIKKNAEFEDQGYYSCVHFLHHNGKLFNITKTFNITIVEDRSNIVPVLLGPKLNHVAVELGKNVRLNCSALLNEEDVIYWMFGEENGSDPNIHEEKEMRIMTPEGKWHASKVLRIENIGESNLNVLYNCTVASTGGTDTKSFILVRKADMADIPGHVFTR
In words: BIAcore; 2F1/Fc captured by anti-human IgG Fc serum, ligand at several different concentrations.
From the text: as §1

Sequence of chimeric receptor: extracellular and transmembrane portions of the mouse type I IL-1 receptor fused to the cytoplasmic portion of human 2F1 (mouse; human) (P13504 other isoform, or with tags, fused parts or gaps mutant, form in doubt): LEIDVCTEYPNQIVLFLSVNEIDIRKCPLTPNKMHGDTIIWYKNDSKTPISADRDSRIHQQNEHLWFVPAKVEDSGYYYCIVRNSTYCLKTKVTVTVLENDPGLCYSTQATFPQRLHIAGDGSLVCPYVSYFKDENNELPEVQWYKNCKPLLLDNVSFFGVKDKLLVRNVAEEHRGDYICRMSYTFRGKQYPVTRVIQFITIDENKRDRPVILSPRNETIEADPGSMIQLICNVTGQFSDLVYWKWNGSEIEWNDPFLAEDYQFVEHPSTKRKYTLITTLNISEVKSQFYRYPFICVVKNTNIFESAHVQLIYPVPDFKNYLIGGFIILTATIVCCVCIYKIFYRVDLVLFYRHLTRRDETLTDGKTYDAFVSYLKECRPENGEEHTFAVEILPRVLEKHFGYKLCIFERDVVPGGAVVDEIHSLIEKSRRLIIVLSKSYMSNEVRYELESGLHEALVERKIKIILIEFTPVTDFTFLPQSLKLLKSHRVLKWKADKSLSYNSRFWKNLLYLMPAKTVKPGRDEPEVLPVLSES

B1: human IL-1α (ligand, UniProt P01583 113-271, looked up)
chain: SAPFSFLSNVKYNFMRIIKYEFILNDALNQSIIRANDQYLTAAALHNLDEAVKFDMGAYKSSKDDAKITVILRISKTQLYVTAQDEDQPVLLKEMPEIPKTITGSETNLLFFWETHGTKNYFTSVAHPNLFIATKQDYWVCLAGGPPSITDFQILENQA
With B1, in assay [1], the induction of IL-8 promoter function (IL-2Rα reporter, COS7 cells) was found to be 0.5. Besides, the results for the binding result in assay [2] and in assay [3] were “binds” and “no binding”, respectively.
